From patent US11123413B2, “Carbapenemases for use with antibiotics for the protection of the intestinal microbiome” (priority 2015, dated 2021)
Values joined by “and” are separate entries in the source; they are usually repeats but may differ in a detail not shown here. Equal entries are not always repeated.

B1: P2A: broad spectrum carbapenemase, class B metallo-enzyme requiring zinc, SEQ ID NO: 37; P2A-21 = product of strain SYT-PP0602-21 (protein)
chain: ETGTISISQLNKNVWVHTELGYFNGEAVPSNGLVLNTSKGLVLVDSSWDNKLTKELIEMVEKKFQKRVTDVIITHAHADRIGGITALKERGIKAHSTALTAELAKNSGYEEPLGDLQTITSLKFGNTKVETFYPGKGHTEDNIVVWLPQYQILAGGCLVKSAEAKDLGNVADAYVNEWSTSIENVLKRYGNINSVVPGHGEVGDKGLLLHTLDLLK
B2: NDM: New Delhi metallo-β-lactamase NDM-1; NDM-68 = product of strain STY-NP1602-68 (STII Δ35, N-terminal GQQMETG) (protein)
chain: GQQMETGDQRFGDLVFRQLAPNVWQHTSYLDMPGFGAVASNGLIVRDGGRVLVVDTAWTDDQTAQILNWIKQEINLPVALAVVTHAHQDKMGGMDALHAAGIATYANALSNQLAPQEGMVAAQHSLTFAANGWVEPATAPNFGPLKVFYPGPGHTSDNITVGIDGTDIAFGGCLIKDSKAKSLGNLGDADTEHYAASARAFGAAFPKASMIVMSHSAPDSRAAITHTARMADKLR

What was measured:
[1] = P2A stability in human chyme (CENTA); format: in vitro ADME
Description: The stability of purified P2A when incubated in human chyme at 37° C. was evaluated by assessing aliquots withdrawn from incubated samples at 0, 0.5, 1, 2, 3, 4, 5, and 6 hours for beta-lactamase activity using a CENTA beta-lactamase substrate. Five different chyme specimens were used for evaluation of stability. The mixed chyme sample contained equal volumes of each of the five chime specimens mixed together. Chyme samples were characterized for pH, liquid content, and protease activity (Table 20).

[2] = tested on: E. coli (ATCC 25922); test: Antibiotic inactivation screening assay via E. coli growth (96 well plate, OD625); format: cell-based; conditions: 10 ng/ml or 100 ng/ml enzyme (FIG. 35)
[3] = Oral P2A and intravenous meropenem in jejunal-fistulated dogs; format: in vivo, laboratory beagles
Description: (§1) The ability of P2A to degrade meropenem in the dog intestinal tract was evaluated using laboratory beagles that had permanent jejunal fistulas. The fistulas allowed the repeated collection of jejunal chyme specimens from these animals. Dogs were treated with peroral P2A (1 mg/kg) in a liquid formulation (PBS buffer), and/or intravenous meropenem (30 mg/kg). Serum samples were collected and serum meropenem levels quantified. Jejunal chyme samples were collected and meropenem and P2A levels were quantified. Meropenem levels in serum and chyme were measured using a plate diffusion method using meropenem susceptible Micrococcus luteus TS504 as the test strain. P2A activity levels in chyme were determined spectrophotometrically using meropenem as a substrate. Meropenem hydrolysis was monitored at a wavelength of 297 nm.

[4] = Oral P2A and intravenous ampicillin in jejunal-fistulated dogs; format: in vivo, laboratory beagles; conditions: peroral P2A 1 mg/kg liquid formulation, intravenous ampicillin 40 mg/kg
Description: as §1, with “degrade ampicillin” for “degrade meropenem”, “intravenous ampicillin (40” for “intravenous meropenem (30”, “serum ampicillin” for “serum meropenem”, “and ampicillin” for “and meropenem”, “quantified. Ampicillin” for “quantified. Meropenem”, “a standard reverse phase HPLC method.” for “a plate diffusion method using meropenem susceptible Micrococcus luteus TS504 as the test strain.”

[5] = Oral P2A and intravenous cefotaxime in jejunal-fistulated dogs; format: in vivo, laboratory beagles; conditions: peroral P2A 1 mg/kg, intravenous cefotaxime 60 mg/kg, omeprazole
Description: The ability of P2A to degrade cefotaxime in the dog intestinal tract was evaluated using laboratory beagles that had permanent jejunal fistulas. The fistulas allowed the repeated collection of jejunal chyme specimens from these animals. Dogs were treated with peroral P2A (1 mg/kg) in a liquid formulation (PBS buffer), and/or intravenous cefotaxime (60 mg/kg). A single dose of omeprazole (10 mg) was delivered orally to each dog prior to treatment with ceftriaxone and/or P2A to inhibit the HCl activity in the stomach to potentially reduce P2A degradation. Serum samples were collected and serum cefotaxime levels quantified. Jejunal chyme samples were collected and cefotaxime and P2A levels were quantified. Cefotaxime levels in serum and chyme were measured using a plate diffusion method using cefotaxime susceptible Micrococcus luteus TS504 as the test strain. P2A activity levels in chyme were determined spectrophotometrically using meropenem as a substrate. Meropenem hydrolysis was monitored at a wavelength of 297 nm.

[6] = KPC and NDM stability in mixed human chyme versus buffer (CENTA); format: in vitro ADME; conditions: 100 μM ZnSO4, 37° C., 80 ng/mL
Description: The stability of KPC and NDM in human chyme at 37° C. was evaluated by adding purified KPC or NDM (final concentration of 80 ng/mL) to mixed human chyme that contained equal volumes of each of five human chyme specimens collected from five different donors. ZnSO4 was added to the mixed chyme for a final concentration of 100 μM ZnSO4. Aliquots of the enzyme/chyme mixture were collected at 0, 30, 60, 120, 180, and 240 minutes of incubation and evaluated for beta-lactamase activity with a chromogenic assay using the CENTA reagent as the substrate. The biological activity of the enzymes in the mixed chyme was compared to the activity in buffer (HEPES buffer, 100 μM ZnSO4 pH 6.2).

[7] = Proteolytic cleavage of NDM in 2% human chyme or porcine pancreatic elastase, N-terminal sequencing of fragments; format: in vitro ADME; conditions: 500 ug/mL in 2% mixed human chyme
Description: The loss of NDM activity upon incubation with human chyme was due to the proteolytic cleavage of NDM by endogenous proteases present in human chyme. To map the cleavage sites within the NDM protein, NDM ([…]) was incubated with 2% mixed human chyme (human chyme diluted with incubation buffer, 20 mM Hepes pH 6.2; 150 mM NaCl, 100 uM ZnSO4) for times ranging from 0 to 180 minutes. Twenty microliters of each sample (1 ug) was removed and transferred to 20 μL of 2× denaturing sample buffer for a final concentration of 25 ng/μL. The samples were boiled and 10 μL (250 ng of NDM) was subjected to analysis by SDS-PAGE. NDM was rapidly degraded, in 0-15 minutes, into 5 distinct cleavage fragments (FIG. 26). […]
To map the proteolytic cleavage sites of the NDM fragments, NDM was incubated with 2% mixed human chyme as described for 0 or 15 minutes. […] The NDM digestions were analyzed by SDS/PAGE, the gel equilibrated in 1× Tris-Glycine transfer buffer and the proteins were transferred to an equilibrated Sequi-Blot PVDF membrane by wet transfer in Tris-glycine buffer. […] The isolated fragments were analyzed by N-terminal sequencing of the first 5 amino acids using a Perkin Elmer Applied Biosystems Model 494 Procise protein/peptide sequencer with an on-line Perkin Elmer Applied Biosystems Model 140C PTH Amino Acid Analyzer. […]

[8] = peak level in dog jejunum, meropenem 30 mg/kg IV + P2A 1 mg/kg PO, individual dogs
[9] = peroral P2A 1 mg/kg, intravenous meropenem 30 mg/kg

Molecule | activity in chyme 3 sample ([1]; chyme 3 (pH 5.6)) | stability in pH-adjusted chyme 3 ([1]; chyme 3 adjusted to pH 7.0 using NaOH) | beta-lactamase activity in individual chyme samples ([1]; five individual human chyme samples, 100 uM ZnSO4) | beta-lactamase activity in mixed chyme without additional zinc ([1]; mixed human chyme, no added zinc, 37° C.) | activity against cephalosporins compared to SYN-004 or P4A [2] | jejunal P2A concentration at which meropenem was not detected ([3]; intestinal samples, dogs) | Meropenem [3, 8] | P2A (U/g) [3, 8] | effect on serum levels of meropenem [3, 9] | meropenem in jejunal chyme [3, 9] | ampicillin in jejunal chyme [4] | effect on serum levels of ampicillin [4] | cefotaxime in jejunal chyme [5] | effect on serum levels of cefotaxime [5] | time by which activity was lost / not detectable [6] | time at which protein and fragments were undetectable [7] | time of degradation into 5 distinct cleavage fragments [7]
B1 | rapidly declined | improved | relatively stable in four of five individual chyme samples | declined more rapidly | not as active against the cephalosporins, cefozolin, cefoperazone, cefepime, and ceftazidime | at least 0.5 U/g | 0 ug/ml (2×) and 2.0 ug/ml | 0.5 U/g and 0.2 U/g and 80 U/g | does not reduce serum levels of meropenem | degraded meropenem | degraded ampicillin | does not reduce serum levels of ampicillin | degraded cefotaxime | does not reduce serum levels of cefotaxime | – | – | –
B2 | – | – | – | – | – | – | – | – | – | – | – | – | – | – | ≤ 30 min | 60 to 90 min | 0 to 15 min
